From article PMC2790891 come the findings set out here.

The target in data set [1] is SsoDpo1 exonuclease mutant (D231A/D318A) (Sulfolobus solfataricus P2) (UniProt P26811). Briefly: ITC. On the technique in general: In ITC the heat of successive injections is recorded.
Data set [2] shares this target. Description: native gel or EMSA.
Data set [3] deals with T1, SsoDpo1 exo- (B-family DNA polymerase 1) (Sulfolobus solfataricus, UniProt P26811 1-882, D231A;D318A).
T1 sequence: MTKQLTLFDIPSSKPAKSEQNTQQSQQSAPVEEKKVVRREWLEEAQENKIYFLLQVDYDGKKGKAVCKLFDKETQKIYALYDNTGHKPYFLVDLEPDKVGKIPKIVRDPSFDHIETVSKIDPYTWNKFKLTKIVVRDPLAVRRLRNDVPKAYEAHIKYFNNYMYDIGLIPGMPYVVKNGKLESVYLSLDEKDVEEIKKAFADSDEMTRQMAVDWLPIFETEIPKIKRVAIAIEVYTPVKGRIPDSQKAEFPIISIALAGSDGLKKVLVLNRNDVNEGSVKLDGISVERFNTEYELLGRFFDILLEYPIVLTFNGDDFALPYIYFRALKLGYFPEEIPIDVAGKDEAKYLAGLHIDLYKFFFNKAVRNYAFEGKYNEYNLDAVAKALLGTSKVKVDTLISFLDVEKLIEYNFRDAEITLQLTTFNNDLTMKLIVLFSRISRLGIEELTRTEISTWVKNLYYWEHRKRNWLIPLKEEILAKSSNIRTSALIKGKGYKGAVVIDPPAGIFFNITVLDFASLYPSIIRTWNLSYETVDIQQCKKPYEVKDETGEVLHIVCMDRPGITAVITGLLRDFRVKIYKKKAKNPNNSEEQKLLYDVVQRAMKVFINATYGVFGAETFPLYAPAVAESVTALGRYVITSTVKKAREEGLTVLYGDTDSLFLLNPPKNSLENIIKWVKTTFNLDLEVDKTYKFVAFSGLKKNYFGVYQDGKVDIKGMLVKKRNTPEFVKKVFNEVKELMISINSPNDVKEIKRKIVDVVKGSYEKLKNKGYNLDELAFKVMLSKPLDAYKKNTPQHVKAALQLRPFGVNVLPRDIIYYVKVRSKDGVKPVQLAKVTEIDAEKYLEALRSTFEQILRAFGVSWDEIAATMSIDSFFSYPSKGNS
Description: EMSA. (Mobility shift assays separate free from complexed probe on a gel.)

The target in data set [4] is T1, SsoDpo1 exo- (B-family DNA polymerase 1). Briefly: ITC.
The target is the same in data set [5]. Briefly: fluorescence anisotropy. For orientation: In fluorescence polarisation assays a small probe gives low polarisation when free and higher when bound to something large.

As usually defined, the stoichiometry N is the number of molecules, sites or subunits per partner or assembly. For “SsoDpo1 exonuclease mutant (D231A/D318A) (from UniProt P26811 1-882) (enzyme)”, the values for the stoichiometry N in data set [1] and in data set [2] were 2.84 and 3.5, respectively.

B1: long p/tDNA 28/66-mer (dsDNA)
DNA 1: CACCTCTCCCTACGCTTCCCACCCACCCCGACCGGCATCTGCTATGGTACGCTGAGCGAGAGTAGC
DNA 2: GCTACTCTCGCTCAGCGTACCATAGCAG
One may read the Kd as the free concentration of one partner at which half of the binding sites on the other are occupied at equilibrium, for simple one-to-one binding. Molecule B1 showed a Kd in data set [3] of 0.1 ± 0.01 nM.

B2: short p/tDNA 21/31-mer (dsDNA)
DNA 1: GCTGTGCTCTCGCCGCGTGCC
DNA 2: TATCTTCTATGGCACGCGGCGAGAGCACAGC
For B2, in data set [4], binding was put at a Kd of 1200 ± 100 nM.

B3: Cy5 p/tDNA hairpin (structured_DNA)
DNA: TTTTTTTTTTTTTTTCGAATGGCGCTTTGCCTGGTTTTTACCAGGCAAAGCGCCATTCG
Consider B3, for which the binding result in data set [5] is on record as “binds”.
